Laboratory results taken from PMC2241857.

B1: LPSD incised 5'-dRP substrate (UDG and APE1 treated) (dsDNA)
DNA 1: CTGCAGCTGATGCGC
DNA 2: GTACGGATCCCCGGGTAC
DNA 3: GTACCCGGGGATCCGTACGGCGCATCAGCTGCAG
modifications: uracil (position 16 of S8) removed by UDG; APE1 nick leaves 3'-OH and 5'-dRP on S8[17-34]
B2: 45AGR (recessed) (dsDNA)
DNA 1: GCCTCGCAGCCGTCCAACCAAC
DNA 2: GGACGGCATTGGATCGAGGTTGAGTTGGTTGGACGGCTGCGAGGC
modifications: template 5' phosphate
B3: 45AG (1-nt gapped, 5'-phosphorylated downstream) (dsDNA)
DNA 1: GCCTCGCAGCCGTCCAACCAAC
DNA 2: CAACCTCGATCCAATGCCGTCC
DNA 3: B2 DNA 2
modifications: 5' phosphate on downstream oligo (S2) and template
B4: 45AG1bpDNP (1-nt gapped, non-phosphorylated downstream) (dsDNA)
DNA 1: GCCTCGCAGCCGTCCAACCAAC
DNA 2: CAACCTCGATCCAATGCCGTCC
DNA 3: B2 DNA 2
modifications: no 5' phosphate on downstream oligo (S2); template 5' phosphate

What was measured:
DNA polymerase beta WT [1] = biological target: T1, DNA polymerase beta WT (UniProt P06746 1-335); test: NaBH4 trapping of Schiff base complex
DNA polymerase beta L22P = DNA polymerase beta L22P (UniProt P06746 1-335, L22P); test: EMSA
DNA polymerase beta WT [2] = biological target: T1, DNA polymerase beta WT; test: EMSA

Row | Binder | binding result (DNA polymerase beta WT [1]) | Kd (DNA polymerase beta L22P) [nM] | Kd (DNA polymerase beta WT [2]) [nM]
1 | B1 | binds | – | –
2 | B2 | – | 455 ± 100 | 84 ± 18
3 | B3 | – | 229 ± 50 | 12 ± 2
4 | B4 | – | 291 ± 45 | 20 ± 3
